In patent US20260258113A1, “BETA GLOBIN MIMETIC PEPTIDES AND THEIR USE” (THE UNITED STATES OF AMERICA, AS REPRESENTED BY THE …, priority 2022, published 2026):

Target: T1, alpha globin (Homo sapiens, UniProt P69905)
T1 construct: The equilibrium dissociation constant of full-length alpha globin and the eNOS oxygenase domain had not previously been quantified
Experiment: Protein-protein binding affinity by biolayer interferometry
Details: binding to immobilized biotinylated alpha globin
Protocol: FIGS. 2A-2D: A) Beta globin, eNOS, and cytochrome B5 reductase 3 (Cyb5R3) co-immunoprecipitate with alpha globin in lysates of perfused human omental arteries. P1, P2, and P3 each represent an independent replicate consisting of pooled flash-frozen arteries from two donors (n=30 arteries from each donor). P1 and P2 were incubated with an alpha globin antibody to immunoprecipitate alpha globin and bound protein partners. P3 was incubated instead with an IgG antibody as a negative control. Western blot was performed on the immunoprecipitate with antibodies for alpha globin, beta globin, Cyb5R3, or eNOS. Myc-eNOS purified from a cell overexpression lysate served as a positive control for eNOS. RBC lysate served as a positive control for alpha and beta globin. B) The red blood cell protein Band 3/SLC4A1 is not detected in protein lysates from pooled human omental arteries. Prior to immunoprecipitation, whole protein lysate was loaded into a gel and probed by Western Blot for SLC4A1 and alpha globin. […] C-D) Biolayer interferometry sensorgram traces of the binding of eNOS or AHSP to alpha globin showing association and dissociation; raw datasets shown in black, fitting curves shown. […]
Protein-protein binding affinity assessed by biolayer interferometry: Biolayer interferometry experiments were performed on the automated eight-channel Octet RED96 instrument (ForteBio). […]

T1 sequence (P69905 whole entry, the tested form may be a part): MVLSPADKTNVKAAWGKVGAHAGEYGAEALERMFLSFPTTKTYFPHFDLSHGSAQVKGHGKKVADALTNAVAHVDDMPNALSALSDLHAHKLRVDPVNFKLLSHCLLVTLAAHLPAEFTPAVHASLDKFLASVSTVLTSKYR

Kd: 1310 nM
B1: eNOSox: recombinant human eNOS oxidase domain (protein)
chain: PKFPRVKNWEVGSITYDTLSAQAQQDGPCTPRRCLGSLVFPRKLQGRPSPGPPAPEQLLSQARDFINQYYSSIKRSGSQAHEQRLQEVEAEVAATGTYQLRESELVFGAKQAWRNAPRCVGRIQWGKLQVFDARDCRSAQEMFTYICNHIKYATNRGNLRSAITVFPQRCPGRGDFRIWNSQLVRYAGYRQQDGSVRGDPANVEITELCIQHGWTPGNGRFDVLPLLLQAPDDPPELFLLPPELVLEVPLEHPTLEWFAALGLRWYALPAVSNMLLEIGGLEFPAAPFSGWYMSTEIGTRNLCDPHRYNILEDVAVCMDLDTRTTSSLWKDKAAVEINVAVLHSYQLAKVTIVDHHAATASFMKHLENEQKARGGCPADWAWIVPPISGSLTPVFHQEMVNYFLSPAFRYQPDPWKGSAAKGTGITR
